# Measured values reported in US20240141071A1 (LAVA THERAPEUTICS N V, published 2024).
# Values joined by “and” are separate entries in the source; they are usually repeats but may differ in a detail not shown here. Equal values may be shown once.
# T1: recombinant purified CD123-Fc fusion protein (Bio-Techne/R&D Systems) (human, UniProt P26951 19-305)
# T1 construct: Bought; also called Fc-fusion of the CD123 antigen; recombinant CD123
# T1 sequence: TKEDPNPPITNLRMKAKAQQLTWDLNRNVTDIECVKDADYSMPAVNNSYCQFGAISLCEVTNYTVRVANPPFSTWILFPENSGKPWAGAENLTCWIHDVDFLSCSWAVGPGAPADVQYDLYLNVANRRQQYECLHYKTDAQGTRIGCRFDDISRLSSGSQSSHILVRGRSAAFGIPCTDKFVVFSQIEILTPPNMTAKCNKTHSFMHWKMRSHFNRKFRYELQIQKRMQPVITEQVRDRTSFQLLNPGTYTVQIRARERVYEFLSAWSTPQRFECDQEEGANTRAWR
# T2: human CD131 (common β chain of the IL3 receptor) expressed on 293F cells (human, UniProt P32927 17-897)
# T2 sequence: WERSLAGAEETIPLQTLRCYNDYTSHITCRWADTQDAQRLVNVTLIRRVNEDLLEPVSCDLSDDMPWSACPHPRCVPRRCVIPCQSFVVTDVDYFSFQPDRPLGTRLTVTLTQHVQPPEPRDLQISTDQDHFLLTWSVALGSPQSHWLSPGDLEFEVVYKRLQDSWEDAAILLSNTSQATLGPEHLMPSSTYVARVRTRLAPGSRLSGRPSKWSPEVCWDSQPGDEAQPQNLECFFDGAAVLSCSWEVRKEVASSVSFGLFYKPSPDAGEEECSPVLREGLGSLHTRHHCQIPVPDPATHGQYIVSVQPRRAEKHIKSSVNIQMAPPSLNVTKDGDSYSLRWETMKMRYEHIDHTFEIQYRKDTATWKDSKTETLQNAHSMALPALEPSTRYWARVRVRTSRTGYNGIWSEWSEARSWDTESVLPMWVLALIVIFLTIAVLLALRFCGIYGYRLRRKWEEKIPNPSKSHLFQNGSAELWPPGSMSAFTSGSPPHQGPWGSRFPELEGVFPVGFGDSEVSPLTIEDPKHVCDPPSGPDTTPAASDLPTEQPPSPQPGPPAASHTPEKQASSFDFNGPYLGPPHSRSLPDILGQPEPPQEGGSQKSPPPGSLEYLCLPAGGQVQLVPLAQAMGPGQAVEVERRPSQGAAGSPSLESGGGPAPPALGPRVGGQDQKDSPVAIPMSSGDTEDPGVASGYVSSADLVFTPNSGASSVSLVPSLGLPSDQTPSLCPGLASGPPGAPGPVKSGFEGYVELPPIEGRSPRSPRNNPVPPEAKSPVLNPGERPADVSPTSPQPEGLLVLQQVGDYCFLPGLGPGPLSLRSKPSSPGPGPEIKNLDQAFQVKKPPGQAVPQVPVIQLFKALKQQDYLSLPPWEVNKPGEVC
# B1: humanized 1D2-5C8var1 variant with 1D2 var3 (SEQ ID NO:27) (bispecific antibody)
# chain: EVQLVESGGGLVQPGGSLRLSCAASGRTASSYVMSWFRQAPGKEREWVAVINWNGDSTYYADSVKGRFTISRDNSKNTVYLQMNSLRAEDTAVYYCAADTRREWYRDGYWGPPARYEYDYRGQGTLVTVSSGGGGSEVQLLESGGGSVQPGGSLRLSCAASGRPFSNYAMSWFRQAPGKEREFVSAISWSGGSTSYADSVKGRFTISRDNSKNTLYLQMNSLRAEDTAVYYCAAQFSGADYGFGRLGIRGYEYDYWGQGTQVTVSSAAAEPEA
# notes: See note of m19
# B2: 1D2-5C8var1 bispecific VHH (bispecific antibody)
# chain: EVQLVESGGGLVQAGGSLRLSCAASGRTASSYVMGWFRQAPGKEREFVAVINWNGDSTYYTDSVKGRFAISRDNAKNTVYLQMNSLKPEDTAVYYCAADTRREWYRDGYWGPPARYEYDYRGQGTQVTVSSGGGGSEVQLLESGGGSVQPGGSLRLSCAASGRPFSNYAMSWFRQAPGKEREFVSAISWSGGSTSYADSVKGRFTISRDNSKNTLYLQMNSLRAEDTAVYYCAAQFSGADYGFGRLGIRGYEYDYWGQGTQVTVSSAAAEPEA
# notes: Orientation N-term-anti-CD123 VHH-linker-anti-Vδ2 VHH-C-tag; also called parental 1D2
# B3: humanized 1D2-5C8var1 variant with 1D2 var1 (SEQ ID NO:25) (bispecific antibody)
# chain: EVQLVESGGGLVQPGGSLRLSCAASGRTASSYVMGWFRQAPGKEREFVSVINWNGDSTYYADSVKGRFTISRDNSKNTLYLQMNSLRAEDTAVYYCAADTRREWYRDGYWGPPARYEYDYRGQGTQVTVSSGGGGSEVQLLESGGGSVQPGGSLRLSCAASGRPFSNYAMSWFRQAPGKEREFVSAISWSGGSTSYADSVKGRFTISRDNSKNTLYLQMNSLRAEDTAVYYCAAQFSGADYGFGRLGIRGYEYDYWGQGTQVTVSSAAAEPEA
# B4: humanized 1D2-5C8var1 variant with 1D2 var5 (SEQ ID NO:29) (bispecific antibody)
# chain: EVQLVESGGGLVQPGGSLRLSCAASGRTASSYVMSWFRQAPGKEREFVAVINWNGDSTYYADSVKGRFTISRDNSKNTVYLQMNSLRAEDTAVYYCAADTRREWYRDGYWGPPARYEYDYRGQGTLVTVSSGGGGSEVQLLESGGGSVQPGGSLRLSCAASGRPFSNYAMSWFRQAPGKEREFVSAISWSGGSTSYADSVKGRFTISRDNSKNTLYLQMNSLRAEDTAVYYCAAQFSGADYGFGRLGIRGYEYDYWGQGTQVTVSSAAAEPEA
# notes: See note of m19
# B5: humanized 1D2-5C8var1 variant with 1D2 var7 (SEQ ID NO:31) (bispecific antibody)
# chain: EVQLVESGGGLVQPGGSLRLSCAASGRTASSYVMSWVRQAPGKGLEWVSVINWNGDSTYYADSVKGRFTISRDNSKNTLYLQMNSLRAEDTAVYYCAADTRREWYRDGYWGPPARYEYDYRGQGTLVTVSSGGGGSEVQLLESGGGSVQPGGSLRLSCAASGRPFSNYAMSWFRQAPGKEREFVSAISWSGGSTSYADSVKGRFTISRDNSKNTLYLQMNSLRAEDTAVYYCAAQFSGADYGFGRLGIRGYEYDYWGQGTQVTVSSAAAEPEA
# notes: See note of m19
# B6: humanized 1D2-5C8var1 variant with 1D2 var9 (SEQ ID NO:33) (bispecific antibody)
# chain: EVQLVESGGGLVQAGGSLRLSCAASGRTASSYVMGWFRQAPGKEREWVAVINWNGDSTYYTDSVKGRFAISRDNAKNTVYLQMNSLRAEDTAVYYCAADTRREWYRDGYWGPPARYEYDYRGQGTQVTVSSGGGGSEVQLLESGGGSVQPGGSLRLSCAASGRPFSNYAMSWFRQAPGKEREFVSAISWSGGSTSYADSVKGRFTISRDNSKNTLYLQMNSLRAEDTAVYYCAAQFSGADYGFGRLGIRGYEYDYWGQGTQVTVSSAAAEPEA
# notes: See note of m19
# Experiments:
# [1] = target: T1, recombinant purified CD123-Fc fusion …; assay: BLI, CD123-Fc on anti-human IgG Fc capture sensors; SD 4.3
# Method: (§1) To determine the kinetics of binding of humanized 1D2-5C8var1 variants to CD123, recombinant purified CD123-Fc fusion protein (Bio-Techne/R&D Systems) was loaded to a density of 1 nm onto anti-human IgG Fc Capture sensors (using a concentration of 5 μg/ml) for an Octet Red96e (Sartorius) instrument. Different sensors were then dipped in different concentrations of humanized 1D2-5C8var1 variants, starting at 50 nM and two-fold dilutions thereof; dilutions were made in 10× kinetic buffer (10×KB) provided by the supplier. From the obtained sensorgrams, the kinetic association- and dissociation rate constants were determined by curve fitting. The association- and dissociation rate constants, when fitting was possible, were used to calculate the affinity of the humanized 1D2-5C8var1 variants for binding to CD123. […] For reference, the non-humanized (parental) 1D2 was included in these experiments.
# [2] = target: T3, human CD123 expressed on cells (human, UniProt P26951 19-378); assay: flow cytometry titration on 293F cells transiently expressing CD123; apparent affinity, EC50 by curve fitting
# T3 construct: also called interleukin-3 receptor alpha chain
# [3] = target: T1, recombinant purified CD123-Fc fusion …; assay: BLI, CD123-Fc on anti-human IgG Fc capture sensors; SD 0.7
# Method: as §1
# [4] = target: human CD123 co-expressed with CD131 on 293F cells (human, UniProt P26951 19-378; P32927 17-897); assay: flow cytometry titration on 293F cells transiently expressing CD123 and CD131, anti-VHH detection
# Method: (§2) FIG. 3: Determination of the apparent affinity of 1D2-5C8var1 for binding to CD123 using flow cytometry. […] The geometric mean of the fluorescence intensity is plotted as a function of the antibody concentration used. The EC50 value was determined by curve fitting.
# (§3) Expression constructs for human CD123 and for the common β chain of the receptor (CD131) were purchased from Invivogen. Plasmids were transformed to chemically competent DH5α bacteria and a single colony growing on selective medium was used to inoculate a 50 ml culture to amplify both constructs. […] Either plasmid alone, or a mix of the two plasmids was used for transfection. As negative control, untransfected cells were also used for flow cytometry. A day after transfection, cells were used to test the binding of the bispecific VHH using staining in FACS. Briefly, binding of a saturating concentration of 100 nM bispecific VHH to transfected cells was detected with an AF647-labeled anti-VHH (Genscript) antibody and staining was visualized using a FACS Celesta (Becton and Dickinson).
# (§4) The former cells (expressing CD131) were used as negative control.
# BSA = target: T4, BSA (bovine, UniProt P02769); assay: ELISA, wells coated with 1% BSA (panel BSA), HRP anti-VHH detection
# T4 construct: also called bovine serum albumin, negative control coating
# T4 sequence (P02769 25-607 limits assumed): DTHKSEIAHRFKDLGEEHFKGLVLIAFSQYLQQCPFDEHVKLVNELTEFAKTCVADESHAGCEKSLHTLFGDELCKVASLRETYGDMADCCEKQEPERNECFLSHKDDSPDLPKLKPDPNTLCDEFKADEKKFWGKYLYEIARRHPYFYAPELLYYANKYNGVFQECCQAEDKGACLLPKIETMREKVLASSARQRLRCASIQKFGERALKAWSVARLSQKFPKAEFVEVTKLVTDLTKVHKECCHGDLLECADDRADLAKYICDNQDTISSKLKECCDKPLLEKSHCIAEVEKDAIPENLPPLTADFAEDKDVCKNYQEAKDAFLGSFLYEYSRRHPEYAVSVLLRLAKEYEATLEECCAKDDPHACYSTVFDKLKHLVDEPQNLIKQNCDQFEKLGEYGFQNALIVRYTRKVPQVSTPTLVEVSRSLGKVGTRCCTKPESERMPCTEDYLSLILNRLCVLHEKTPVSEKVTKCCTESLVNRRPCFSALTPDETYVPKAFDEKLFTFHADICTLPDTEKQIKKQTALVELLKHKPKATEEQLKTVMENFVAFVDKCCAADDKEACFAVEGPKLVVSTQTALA
# Source text: FIG. 1: ELISA showing binding of all different bispecific VHHs to CD123, the Vγ9Vδ2 (GDT) TCR and BSA (as negative control). OD values are depicted; values are the mean of duplicate measurements; error bars indicate standard errors of the mean. A mono-valent anti-Vδ2 VHH was used as control for the TCR staining (“TCR control”) and a commercially available anti-CD123 antibody (“anti-CD123”) was used as control for the CD123 antigen coatings. “No AB” indicates a negative control without primary antibody.
# Recombinant, purified CD123 antigen (extra-cellular domain; Sino Biological), or an Fc-fusion of the CD123 antigen (Bio-Techne/R&D Systems) was coated to the wells of an ELISA plate (Greiner) in PBS at a concentration of 2 μg/ml. As a negative control, wells were coated with 1% (w/v) BSA. An in-house designed, produced and purified recombinant form of the extra-cellular domains of the human Vγ9 and Vδ2 TCR chains fused to a human Fc was also coated as antigen at 2 μg/ml. After coating and blocking of the wells with 2% (w/v) BSA, bispecific VHH proteins were tested for binding at a saturating concentration of 50 nM and bound VHH was detected using an HRP-labeled anti-VHH antibody (Genscript) and staining using 3,3′,5,5′-tetramethylbenzidine (TMB)/H2O2.
# [5] = target: T2, human CD131 (common β chain of the IL3 …); assay: flow cytometry on 293F cells transiently expressing CD131, AF647-labeled anti-VHH detection
# Method: as §3
# [6] = target: T3, human CD123 expressed on cells; assay: flow cytometry titration on 293F cells transiently expressing CD123, anti-VHH detection
# Method: as §2, §3, §4
# [7] = target: T3, human CD123 expressed on cells; assay: cell-based or functional assay
# [8] = target: T1, recombinant purified CD123-Fc fusion …; assay: BLI, CD123-Fc on anti-human IgG Fc capture sensors, Octet Red96e, two measurements
# Method: To determine the kinetics of binding of 1D2-5C8var1 to CD123, recombinant purified CD123-Fc fusion protein (Bio-Techne/R&D Systems) was loaded to a density of 1nm onto anti-human IgG Fc Capture sensors (using a concentration of 5 μg/ml) for an Octet Red96e (Sartorius) instrument. Different sensors were then dipped in different concentrations of 1D2-5C8var1; dilutions were made in 10× kinetic buffer (10×KB) provided by the supplier. From the obtained sensorgrams, the kinetic association- and dissociation rate constants were determined by curve fitting.
# The latter is depicted as straight lines in the figure. This was used to determine the kinetic association- and dissociation rate constants and thereby the affinity of the anti-CD123 VHH 1D2.
# [9] = target: T1, recombinant purified CD123-Fc fusion …; assay: BLI, CD123-Fc on anti-human IgG Fc capture sensors; SD 0.4
# Method: as §1
# [10] = target: T1, recombinant purified CD123-Fc fusion …; assay: BLI, CD123-Fc on anti-human IgG Fc capture sensors; SD 1.5
# Method: as §1
# [11] = target: T1, recombinant purified CD123-Fc fusion …; assay: BLI, CD123-Fc on anti-human IgG Fc capture sensors, Octet Red96e
# Method: as §1
# [12] = target: T1, recombinant purified CD123-Fc fusion …; assay: BLI, CD123-Fc on anti-human IgG Fc capture sensors; SD 0.5
# Method: as §1
binder,measurement,setting,value
B1,Kd,[1],14.9 nM
B2,EC50,[2],~3 nM
same,Kd,[3],3.1 nM
same,EC50 (read off the curve),[4],~3 nM
same,binding result,BSA,no binding (tested: 50 nM (single concentration))
same,binding result,[5],no binding (tested: 100 nM (single concentration))
same,EC50 (read off the curve),[6],~3 nM
same,"EC50 for cytotoxicity, C1R-neo target cell lysis by Vγ9Vδ2 T cells, 24 h",[7],1 to 2 pM
same,EC50 of T cell activation and lysis of primary AML blasts,[7],< 1 pM
same,EC50 of THP-1 target cell lysis by Vγ9Vδ2 T cells,[7],1 µM
same,"EC50 of THP-1 target cell lysis by Vγ9Vδ2 T cells, 24 h",[7],1 to 3 pM
same,Kd,[8],3 to 5 nM and 5 nM
B3,Kd,[9],7.2 nM
B4,Kd,[10],7.7 nM
B5,binding result,[11],no binding (tested: 50 nM (highest concentration tested))
B6,Kd,[12],2.6 nM
